Data on three substances can be found in publication PMC5480026.

In assay [1] the target is T1, hIFNγ receptor hIFNGR1 (human (endogenous in WISH)) (UniProt P15260).
T1 sequence: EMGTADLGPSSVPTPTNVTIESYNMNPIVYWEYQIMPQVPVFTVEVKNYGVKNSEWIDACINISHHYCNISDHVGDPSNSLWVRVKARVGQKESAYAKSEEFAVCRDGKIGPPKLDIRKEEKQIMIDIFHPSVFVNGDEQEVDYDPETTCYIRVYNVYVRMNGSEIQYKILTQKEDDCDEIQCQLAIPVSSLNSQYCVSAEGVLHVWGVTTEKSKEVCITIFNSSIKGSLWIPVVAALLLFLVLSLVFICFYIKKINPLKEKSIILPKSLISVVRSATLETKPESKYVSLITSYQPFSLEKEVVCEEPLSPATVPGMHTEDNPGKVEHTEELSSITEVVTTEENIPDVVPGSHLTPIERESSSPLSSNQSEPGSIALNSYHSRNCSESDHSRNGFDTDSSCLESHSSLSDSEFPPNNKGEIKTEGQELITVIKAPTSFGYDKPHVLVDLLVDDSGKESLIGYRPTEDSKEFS

Assay [2] addresses T1, hIFNγ receptor hIFNGR1 (human (endogenous in WISH)). The source holds these as a separate data set.

“human interferon-gamma (hIFNγ), tag-free after enterokinase removal of the His6-FLAG tag (from UniProt P01579 24-161) (ligand)” displayed a specific biological activity after tag removal, kynurenine bioassay on WISH cells in assay [1] of 3e+07 IU/mg.

Regarding “His6-FLAG-hIFNγ fusion protein expressed in E. coli (from UniProt P01579 24-161) (ligand)”, in assay [2], the biological activity, kynurenine bioassay on WISH cells stood at 100 times lower.

With “His6-FLAG-K88Q fusion protein expressed in E. coli (from UniProt P01579 24-161) (ligand)”, in assay [2], the biological activity, kynurenine bioassay on WISH cells was determined as 100 times lower.
